Measurements from publication PMC7835884.
Several values for one entry are separate records, joined by “and”; a condition that tells them apart may be missing. Equal entries are not always repeated.

Columns and labels:
[1] = molecular target: N-terminal 6X-His tagged TfAcCCB (carboxyltransferase subunit of Thermobifida fusca YX acyl-CoA carboxylase) (Thermobifida fusca YX)
[2] = molecular target: N-terminal 6X-His tagged TfAcCCB (carboxyltransferase subunit of Thermobifida fusca YX acyl-CoA carboxylase) (Thermobifida fusca YX); test: pull-down; subunits co-expressed in E. coli; Ni-NTA affinity chromatography via the His-tag on TfAcCCB; SDS-PAGE with Coomassie staining and densitometry, or Western blot with anti-S-tag antibody (Figure 1A, 1B)
[3] = molecular target: TfAcCCA (biotin carboxylase / biotin carboxyl carrier subunit of Thermobifida fusca YX acyl-CoA carboxylase), without tag (Thermobifida fusca YX); test: SEC; Ni-NTA purified holoenzyme from co-expression of all three subunits (wild-type or D427I TfAcCCB); Superdex 200 10/300 GL; 100 mM potassium phosphate pH 7.6, 0.75 mM DTT, 1 mM EDTA, 20% glycerol; apparent molecular weights against standards; peaks analysed by SDS-PAGE (Figure 2A, 2B)
[4] = molecular target: N-terminal 6X-His tagged TfAcCCB (carboxyltransferase subunit of Thermobifida fusca YX acyl-CoA carboxylase) (Thermobifida fusca YX); test: SEC; Ni-NTA purified His-tagged TfAcCCB-TfAcCCE subcomplex or His-tagged TfAcCCA; Superdex 200 10/300 GL; 100 mM potassium phosphate pH 7.6, 0.75 mM DTT, 1 mM EDTA, 20% glycerol; apparent molecular weights against standards (Figure 2C, 2D)
[5] = molecular target: N-terminal 6X-His tagged TfAcCCB (carboxyltransferase subunit of Thermobifida fusca YX acyl-CoA carboxylase) (Thermobifida fusca YX); test: SEC; Ni-NTA purified holoenzyme from co-expression of all three subunits (wild-type or D427I TfAcCCB); Superdex 200 10/300 GL; 100 mM potassium phosphate pH 7.6, 0.75 mM DTT, 1 mM EDTA, 20% glycerol; apparent molecular weights against standards; peaks analysed by SDS-PAGE (Figure 2A, 2B)

specificity constant (Vmax/Km) of acyl-CoA carboxylation by purified TfAcCCB, made with or without co-expressed TfAcCCE, mixed in vitro with purified TfAcCCA (acetyl-, propionyl- and butyryl-CoA) [1] [fold] | stoichiometry N [2] [molar ratio] | stoichiometry N [3] | stoichiometry N [4] | stoichiometry N [5] | Substance
20 | 1 |  |  |  | TfAcCCE (non-catalytic subunit of Thermobifida fusca YX acyl-CoA carboxylase), without tag (natural protein)
 | 1 | 3 and 6 and 9 |  |  | TfAcCCA (biotin carboxylase / biotin carboxyl carrier subunit of Thermobifida fusca YX acyl-CoA carboxylase), without tag (enzyme)
 |  |  | 6 and 12 and 18 | 6 and 9 and 3 | N-terminal 6X-His tagged TfAcCCB (carboxyltransferase subunit of Thermobifida fusca YX acyl-CoA carboxylase) (enzyme)
